# Assay results published in patent publication US20190270826A1 (Janssen / Centocor, published 2019).
# Residue numbers refer to the chain shown, from its start.
# B1: IC3B19 (bispecific antibody, human IgG4 S228P, kappa, lambda, F234A L235A)
# heavy 1: EVQLVESGGGLVQPGGSLRLSCAASGFTFNTYAMNWVRQAPGKGLEWVARIRSKYNNYATYYAASVKGRFTISRDDSKNSLYLQMNSLKTEDTAVYYCARHGNFGNSYVSWFAYWGQGTLVTVSSASTKGPSVFPLAPCSRSTSESTAALGCLVKDYFPEPVTVSWNSGALTSGVHTFPAVLQSSGLYSLSSVVTVPSSSLGTKTYTCNVDHKPSNTKVDKRVESKYGPPCPPCPAPEAAGGPSVFLFPPKPKDTLMISRTPEVTCVVVDVSQEDPEVQFNWYVDGVEVHNAKTKPREEQFNSTYRVVSVLTVLHQDWLNGKEYKCKVSNKGLPSSIEKTISKAKGQPREPQVYTLPPSQEEMTKNQVSLTCLVKGFYPSDIAVEWESNGQPENNYKTTPPVLDSDGSFLLYSKLTVDKSRWQEGNVFSCSVMHEALHNHYTQKSLSLSLGK
# light 1: QTVVTQEPSLTVSPGGTVTLTCRSSTGAVTTSNYANWVQQKPGQAPRGLIGGTNKRAPGTPARFSGSLLGGKAALTLSGVQPEDEAEYYCALWYSNLWVFGGGTKLTVLGQPKAAPSVTLFPPSSEELQANKATLVCLISDFYPGAVTVAWKADSSPVKAGVETTTPSKQSNNKYAASSYLSLTPEQWKSHRSYSCQVTHEGSTVEKTVAPTECS
# heavy 2: not shown
# light 2: DIQLTQSPSFLSASVGDRVTITCRASQGISSYLAWYQQKPGKAPKLLIYAASTLQSGVPSRFSGSGSGTEFTLTISSLQPEDFATYYCQQVNSYPLTFGGGTKVEIKRTVAAPSVFIFPPSDEQLKSGTASVVCLLNNFYPREAKVQWKVDNALQSGNSQESVTEQDSKDSTYSLSSTLTLSKADYEKHKVYACEVTHQGLSSPVTKSFNRGEC
# notes: IgG4-PAA, Fab arm exchange; also called IAPB57 x CD3B219; IL1RAP x CD3
# Tests used:
# [1] = target: T1, human IL1RAP on cells (endogenous) (human, UniProt Q9NPH3 21-570); experiment: cell-based or functional assay
# T1 sequence (looked up): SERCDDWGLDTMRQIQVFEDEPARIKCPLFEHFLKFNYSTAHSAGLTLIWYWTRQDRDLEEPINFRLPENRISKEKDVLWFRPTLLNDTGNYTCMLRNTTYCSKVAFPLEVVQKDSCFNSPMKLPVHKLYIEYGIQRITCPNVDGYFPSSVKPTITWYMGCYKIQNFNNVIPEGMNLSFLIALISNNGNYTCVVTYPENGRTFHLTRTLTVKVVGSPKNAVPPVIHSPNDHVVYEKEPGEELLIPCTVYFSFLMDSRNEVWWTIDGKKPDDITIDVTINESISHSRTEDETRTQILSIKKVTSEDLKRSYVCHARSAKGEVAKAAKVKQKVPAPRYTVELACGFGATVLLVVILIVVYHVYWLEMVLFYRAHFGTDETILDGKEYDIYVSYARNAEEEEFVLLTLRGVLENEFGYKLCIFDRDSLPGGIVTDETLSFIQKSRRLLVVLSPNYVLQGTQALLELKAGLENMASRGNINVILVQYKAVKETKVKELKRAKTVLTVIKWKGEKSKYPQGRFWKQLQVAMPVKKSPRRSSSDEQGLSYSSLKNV
# [2] = target: T2, cyno IL1RAP ECD displayed on HEK-293F cells (pDisplay) (cynomolgus monkey, UniProt P59822 21-367 (rhesus entry)); experiment: MSD cell binding, HEK-293F Cyno (clone CB8) cells displaying cyno IL1RAP ECD
# T2 sequence: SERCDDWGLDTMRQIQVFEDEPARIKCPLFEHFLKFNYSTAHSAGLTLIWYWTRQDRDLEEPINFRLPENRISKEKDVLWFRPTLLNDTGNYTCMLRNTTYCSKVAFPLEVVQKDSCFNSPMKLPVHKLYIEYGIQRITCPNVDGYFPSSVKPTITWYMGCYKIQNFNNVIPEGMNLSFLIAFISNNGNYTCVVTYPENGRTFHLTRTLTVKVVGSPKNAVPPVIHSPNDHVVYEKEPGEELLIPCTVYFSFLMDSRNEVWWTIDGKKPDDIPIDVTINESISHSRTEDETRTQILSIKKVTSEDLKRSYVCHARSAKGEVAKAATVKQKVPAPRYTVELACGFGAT
# Description: (§1) Cells were immobilized and IL1RAP antibody samples were assayed in triplicate. Briefly, expression supernatants of purified IL1RAP antibodies were normalized to 10 μg/mL. 5000 cells per well were plated into a 384 well plate (MA6000, cat. L21XB, MSD) and allowed to adhere for 2 hr. Cells were then blocked with 20% FBS in PBS (Gibco) for 15 mins. Antibody supernatants were then added and left at RT for 1 hr. Cells were washed 3 times with PBS and a ruthenium labeled secondary antibody (Mesoscale Discovery) was then added at 2 μg/mL and incubated for 1 hour at room temperature. A further washing step was then applied and 35 μL per well of 2×MSD Read buffer T (surfactant free) was then added and incubated for 5-30 minutes for detection. Plates were then read using Sector Imager 2400 (MSD). Data was normalized to controls and graphed using GraphPad Prism Version 5. A positive binder was determined to be a hit with a signal 3× greater than parental cell line background.
# (§2) The MSD cell binding assay described in Example 4 was used to assess IL1RAP binding.
# [3] = target: T3, human IL1RAP ECD displayed on HEK-293F cells (pDisplay) (human, UniProt Q9NPH3 21-367); experiment: MSD cell binding, HEK-293F Human (clone HE2) cells displaying human IL1RAP ECD
# T3 construct: also called Human clone HE2 IL1RAP FL-ECD cell line
# T3 sequence: T2 sequence with F183L, P273T, T326K
# Description: as §1, §2
# human FcRn = target: T4, human FcRn (human, UniProt P55899 24-297; P61769 21-119, limits assumed); experiment: AlphaScreen competition, human FcRn (n=1); displaced: biotinylated control mAb B21M WT IgG1 (m27); pH 6.0
# T4 construct: GST-tagged
# Excerpt: Measurements were made using an AlphaScreen™ assay (Amplified Luminescent Proximity Homogeneous Assay (ALPHA), PerkinElmer, Wellesley, Mass.), a bead-based luminescent proximity assay. Laser excitation of a donor bead excites oxygen, which if sufficiently close to the acceptor bead generates a cascade of chemiluminescent events, ultimately leading to fluorescence emission at 520-620 nm.
binder,measurement,setting,value
B1,"Average EC50, T-cell mediated cytotoxicity, ALL-SIL",[1],4 pM
same,"Average EC50, T-cell mediated cytotoxicity, HPB-ALL",[1],8 pM
same,"Average EC50, T-cell mediated cytotoxicity, LAMA-84",[1],1 pM
same,"Average EC50, T-cell mediated cytotoxicity, MEG-01",[1],2 pM
same,EC50 (read off the curve),[2],~1 µg/mL
same,EC50 (read off the curve),[3],~1 µg/mL
same,IC50 (read off the curve),human FcRn,~200 nM
